For this assay, the target named is SARS-CoV Urbani RBD (SARS-CoV Urbani, UniProt P59594). The assay is described as follows: ELISA. (In an ELISA, binding on a coated surface is turned into a signal by an enzyme label.)

Results on one molecule are retold here after paper PMC9176643 (bioRxiv, 2022).

B1: S2X324 mAb (antibody, V domains shown)
VH: QITLKESGPTLVKPTQTLTLTCTFSGFSVTTSGVGVGWIRQPPGKALEYLALIYWDDDKRYSTSLKSRLTITKDTSKNQVVLTMTNMDPVDTATYYCARHTIPSIFDYWGQGILVTVSS
VL: QPVLTQPASVSGSPGQSITISCTATSSDVGNYNYVSWYQHHPGKAPKLMIYEVSNRPSGVSNRFSGSKSGNTASLTISGLQAEDEADYYCSSYTSSSLLFGGGTKLTVL
In the case of B1, the binding result is listed as “no binding”.
